# Reference: patent US20140128569A1 (PANASONIC, published 2014)
# Target: T1, polypeptide consisting of the amino acid sequence represented by SEQ ID NO: 01, contained in troponin I … (human)
# T1 peptide: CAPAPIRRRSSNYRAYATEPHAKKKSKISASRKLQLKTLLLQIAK
# Assay: phage ELISA; average absorbance relative to example 2-1 (no heat); told of the conditions <=70 C and <=5 min, <=60 C and <=10 min, <=50 C and <=20 min, <=37 C and <=60 min
# Method: Pursuant to the step (a-8), the ELISA plate was prepared.
# A phage binding ratio was calculated from Table 10 on the basis of the following formula (I): […]
binder,measurement,value
"A2 antibody-displayed phage (scFv, 67, 68, 69 its parts; they must be translated; also called A2 antibody fragment; A2 scFv antibody fragment) scFv: DVVLTQSPLTLSVTIGQPASISCKSSQSLLDSDGKTYLNWLLQRPGQSPKRLIYLVSKLDSGVPDRFTGSGSGTDFTLKISRVEAEDLGVYYCWQGTHFPLTFGAGTKLEIKRGGGGSGGGGSGGGGSQLQLQQSGAELVRSGASVKLSCTASGFNIKDYYMNWVKQRPEQGLEWIGWIDPANGDTAYAPRFQVKATMTADKSSNTAYLQLSSLTSEDTAVYYCNADLPMDQWGQGTSVTVSS",phage binding ratio,40%
